Source: US6555107

Target: human CXCR4 (human) (UniProt P61073)
Experiment: cell-based or functional assay

Chain of UniProt P61073 (P61073 whole entry): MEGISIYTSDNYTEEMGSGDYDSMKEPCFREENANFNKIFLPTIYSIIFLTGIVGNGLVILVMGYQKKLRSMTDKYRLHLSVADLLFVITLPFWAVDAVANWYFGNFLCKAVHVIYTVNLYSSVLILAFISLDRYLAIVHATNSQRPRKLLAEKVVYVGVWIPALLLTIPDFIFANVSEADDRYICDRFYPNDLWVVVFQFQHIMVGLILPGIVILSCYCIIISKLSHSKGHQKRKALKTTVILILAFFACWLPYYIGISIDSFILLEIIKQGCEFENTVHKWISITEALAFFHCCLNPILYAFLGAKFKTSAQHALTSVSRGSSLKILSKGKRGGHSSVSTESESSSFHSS

“FIV envelope protein (product of the env gene of FIV clone 34TF10, Petaluma strain) (from UniProt P16090 1-856)” gave an infectivity of replication-competent 34TF10 on CRFK.CXCR4 against CRFK cells (focal infectivity assay) of 8 fold and a titer of FIV Env-enveloped CTRZLb vector on CRFK.CXCR4 cells (transducing units/ml) of 360.
